41 sequences from the nanobody polyreactivity screen of Harvey et al. (2022) can be followed below.

A short description of this data set: yeast display, Sf9 membrane polyspecificity reagent, FACS + sequencing; frameworks hold sequencing errors. Summed up: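 Polyreactivity labels are assigned by the sorting gate from which each nanobody was recovered. The gates were low and high (top ~1%), set on anti-HA fluorescence for expression and streptavidin fluorescence for reagent binding. Before sorting, galactose-induced (36–48 hours) yeast display cells were stained for 1 hour at 4 °C with 10% biotinylated, detergent-solubilized Sf9 membrane reagent.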
Turning to “QVQLVESGGGLVQAGGSLRLSCAASGYTFVNYAMGWYRQAPGKEREFVAAISRSGGSTYYADSVKGRFTISRDNAKNTVYLQMNSLKPEDTAVYYCALRGYPPYNYYYWGQGTQVTVSS”, the “polyreactivity (PSR sort gate)” value is “high polyreactivity”.

On to “QVQLVESGGGLVQAGGSLRLSCAASGYTFVRYAMGWYRQAPGKEREFVASISTSGGSTYYADSVKGRFTISRDNAKNTVYLQMNSLKPEDTAVYYCAAGHVVRRPYLIYDYWGQGTQVTVSS”, for which the “polyreactivity (PSR sort gate)” value was “high polyreactivity”. For “QVQLVESGGGLVQAGGSLRLSCAASGYTFVVYAMGWYRPAPGKERELVAAINKSGGSTYYADSVKGRFTISRDNAKNTVYLQMNSLKPEDTAVYYCAAVVWILYSSSRGDYWGQGTQVTVSS”, the “polyreactivity (PSR sort gate)” value is “low polyreactivity”. Then “QVQLVESGGGLVQAGGSLRLSCAASGYTFVYNAMGWYRQAPGKEREFVAAITWSGTSTRYADSVKGRFTISRDNAKYTVYLQMKSLKPEDTAVYYCAARRRSAQSGSYNHWGQGTQVTVSS”, with “high polyreactivity”. With “QVQLVESGGGLVQAGGSLRLSCAASGYTFWYNAMGWYIPAPGKERELVAAIRSSGARTYYADSVKGRFTISRDNAKNTVYLQMNSLKPEDTAVYYCAASLRSGGRSHYYWGQGTQVTVSS”, the “polyreactivity (PSR sort gate)” value is “high polyreactivity”. The same measure for “QVQLVESGGGLVQAGGSLRLSCAASGYTFYANAMGWYRQATGKEREFVASITWSGGSTYYADSVKGRFTISRDNAKNTVYLQMNSLKPEDTAVYYCAAESWFKYDYWGQGTQVTVSS”: “low polyreactivity”. With “QVQLVESGGGLVQAGGSLRLSCAASGYTFYFYAMGWSRQAPGKERELVAAITGGGTTSYADSVKGRFTISRDNAKNTVYLQMNSLKPEDTAVYYCNVLFADKSDYWGQGSQVTVSS”, the “polyreactivity (PSR sort gate)” value is “low polyreactivity”. For the sequence “QVQLVESGGGLVQAGGSLRLSCAASGYTFYGYAMGWYRQAPGKERELVATISTGGTTTYADSVKGRFTISRDNAKNTVYLQMNSLKPEDTAVYYCAADANQVRDVHEFYPYLHDYWGQGTQVTVSS”, the “polyreactivity (PSR sort gate)” value is recorded as “low polyreactivity”. On to “QVQLVESGGGLVQAGGSLRLSCAASGYTFYPYARGWYRQAPGKGRELVAVITSGDSTYYADSVKGRFTISRDNAKNTVYLQMNSLKPEDSAVYYCNTLGFDYYYYEYDYWVQGTQVTVSS”, for which the “polyreactivity (PSR sort gate)” value is “low polyreactivity”. In the case of “QVQLVESGGGLVQAGGSLRLSCAASGYTFYVYAMGCYRQAPGKERELVASITSSTSTKYADSVKGRFTISRDNANNTVYLQMNSLKPEDTAVYYCAADSRVPEYRSPKNDYWGQGTQVTVSS”, the “polyreactivity (PSR sort gate)” value is listed as “low polyreactivity”.

“QVQLVESGGGLVQAGGSLRLSCAASGYTFYVYTMGWYRPARGKERELVAAISGSGTSTYYADSVKRRFTISRDNAKNTVYLQMNSLKPEDTAVYYCNAQDSLTTVPDPEYDYWGQGTQVTVSS”: the “polyreactivity (PSR sort gate)” value is listed as “low polyreactivity”. As for “QVQLVESGGGLVQAGGSLRLSCAASGYTFYVYTMGWYRQAPGKERELVAAISGSGTSTYYADSVKGRFTISRDNAKNTVYLQMNSLKPEDTAVYYCAAEDYSRDVYSYDYWGQGTQVTVSS”, the “polyreactivity (PSR sort gate)” value is recorded as “low polyreactivity”. In the case of “QVQLVESGGGLVQAGGSLRLSCAASGYTGVYALGWYRQAPGKERELVADITSGGNTDYADSVKGRFTISRDNAKNTVYLQMNSLKPEDTAVYYCATPYRRLNTWIYDYWGQGTQVTVSS”, the “polyreactivity (PSR sort gate)” value is listed as “high polyreactivity”. Turning to “QVQLVESGGGLVQAGGSLRLSCAASGYTIFFNVMGGYRQAPGKERELVAAISYSGGSTNYADSVKGRFTISRDNAKNTVYLQMNSLKPEDTAVYYCNTVRSPPGHVYWGEGTQVTVSS”, the “polyreactivity (PSR sort gate)” value was “low polyreactivity”. On to “QVQLVESGGGLVQAGGSLRLSCAASGYTLADYAMGWYRQAPGKERELVAAISSGGITSYADSVKGRFTISRDNAKNTVYLQMNSLKPEDTAVYYCNAAIVGFTRAYQYDYWGQGTQVTVSS”, for which the “polyreactivity (PSR sort gate)” value is reported as “high polyreactivity”. The same measure for “QVQLVESGGGLVQAGGSLRLSCAASGYTLDNYAMGWYRQAPGKERELVAGITFSGGSTFYADSVKGRFTISRDNAKNTVYLQMNSLKPEDTAVYYCAADAEFQADHKYGYWGQGTQVTVSS”: “low polyreactivity”. Then “QVQLVESGGGLVQAGGSLRLSCAASGYTLFRNAMGWYRQAPGKERELVAAISRSGARTYYADSVKGRFTISRDNAKTTVYLQMNSLKPDYTAVYYCAAVIKWTKDDYWGQGTQVTVSS”, with “high polyreactivity”; and “QVQLVESGGGLVQAGGSLRLSCAASGYTLKYYAMGWYRQAPGKERELVAVISRGGSTYYADSVKGRFTISRDNAKNTVDLQMNSLKPEDTAVYYCAKRPTQGYYPYGYWGQGTQVTVSS”, with “high polyreactivity”; and “QVQLVESGGGLVQAGGSLRLSCAASGYTLQTYAMGWYRQAPGKERELVAAISYRGGRTYYADSVKGRFTISRDNAKNTVYLQMNSLKPEDTAVYYCATRVRYKDYPYSIRYYWGQGTQVTVSS”, with “high polyreactivity”. On to “QVQLVESGGGLVQAGGSLRLSCAASGYTLRIYAMGWYRQAPGKERELVAAISRGGGTTRYADSVKGRFTISRDNAKNTVYLQMNSLKPEDTAVYYCNKDVYGYSRTGPRGYDYWGQGTQVTVSS”, for which the “polyreactivity (PSR sort gate)” value is on record as “high polyreactivity”. Then “QVQLVESGGGLVQAGGSLRLSCAASGYTLSLNAMGWYRQAPGKERELVAVISWNGGRTRYADSVKGRFTISRDNAKNTVYLQMNSLKPEDTAVYYCNADIYARTYAGYYQWRPYDYWGQGTQVTVSS”, with “high polyreactivity”. With “QVQLVESGGGLVQAGGSLRLSCAASGYTLYLNAMGWYSQAPGKERELVARISGGGSTNYADYVKGRFTMSRDNAKNTVYLQMNSLKPEDTAVYYCAATIFAYGYRSFKLDYWGQGTQVTVSS”, the “polyreactivity (PSR sort gate)” value is listed as “low polyreactivity”. On to “QVQLVESGGGLVQAGGSLRLSCAASGYTRFYAMGWYRQAPGKERELVAAISSSGGTTYYADSVKGRFTISRDNAKNTVYLQMNSLKPEDTAVYYCAKYVSYSRTLYDYWGQGTQVTVSS”, for which the “polyreactivity (PSR sort gate)” value was “high polyreactivity”.

Regarding “QVQLVESGGGLVQAGGSLRLSCAASGYTSRSNAMGWYRQAPGKERELVAAIRGGGNTKYADSVKGRFTISRDTAKNTVYLQMNSLKPEDTAVYYCAVVTGSFRTRYTYYYWGLGTQVTVSS”, the “polyreactivity (PSR sort gate)” value is “high polyreactivity”. Then “QVQLVESGGGLVQAGGSLRLSCAASGYTSRTNAMGWYIQAPGKERELVAAITWRGTRTYYADSVKGRFTISRDNAKNTVYLQMNSLKPEDTAVYYCATQWIRKYDYWGQGTQVTVSS”, with “high polyreactivity”; and “QVQLVESGGGLVQAGGSLRLSCAASGYTSYVYAMGWYRQAPGKERELVAAISLRTASTYYADSVKGRFTISRDTAQKTVYVQMNSLKPEDTAVYYCARGRETYRYSYRLNYWGQGTQVTVSS”, with “high polyreactivity”. Consider “QVQLVESGGGLVQAGGSLRLSCAASGYTVAFYDMGWYRQAPRKERELVAAISASGGSTYYADSVKGRFTISRDNAKNTVYLQMNSLKPEDTAVYYCAARSKYRGDMDYWGQGTQVTVSS”, for which the “polyreactivity (PSR sort gate)” value is recorded as “high polyreactivity”. As to “QVQLVESGGGLVQAGGSLRLSCAASGYTYEYYAMGWYRQAPGKERELVAAISWSGGDTYYADSVKGRFTISRDNAKNTVYIQMNSLKPEDTAVYYCNAVLYTYYYYANWYGAYDYWGQGTQVTVCS”, the “polyreactivity (PSR sort gate)” value is listed as “low polyreactivity”. Consider “QVQLVESGGGLVQAGGSLRLSCAASGYTYGYNAMGSYRQAPGKERELVAAITKNGGSTYYADSVKGRFTISRDNAKNTVYLQMNSLKPEDTAVYYCAARIYYSRTFGYYYWGQGTQVTVSS”, for which the “polyreactivity (PSR sort gate)” value is reported as “high polyreactivity”.

Consider “QVQLVESGGGLVQAGGSLRLSCAASISSINAMGWYRQAPGKERELVAAIRWSGSSTYYADSVKGRFTISRDNAKNTVYLQMNSLKPEDTAVYYCAARYVRVGYDYWGQGTQVTVSS”, for which the “polyreactivity (PSR sort gate)” value was “high polyreactivity”. On to “QVQLVESGGGLVQAGGSLRLSCAASRIIFDDNAMGWYRQAPGKEMELVAAISRRGGSTYYADSVKGRFTISRDNAKNTVYLQMNSLKPEDTAVYYCAATTRTSSLYNYWGQGTQVTVSS”, for which the “polyreactivity (PSR sort gate)” value is listed as “high polyreactivity”. Consider “QVQLVESGGGLVQAGGSLRLSCAASRIIFYGNAMGWYRQAHGKERELVAAIDQSGDSTYYADSVKGRFTISRDNAKNTVYLQMNSLKPEDTAVYYCAADSLYLAYEYWGQGTQVTVSS”, for which the “polyreactivity (PSR sort gate)” value is recorded as “high polyreactivity”. In the case of “QVQLVESGGGLVQAGGSLRLSCAASRITSYPYAMGWSRQGPGKERELVAAISKRGGGTYYADSVKGPFTISRDNAMNTVYLQLNSLKPVDTAVYYCAKSWGPTTYKIVPAYGYWGQGTQVTVSS”, the “polyreactivity (PSR sort gate)” value is “high polyreactivity”. With “QVQLVESGGGLVQAGGSLRLSCAASRRIIGAYAMGWDRQAPGKEWELVARISWSGGTTYYADSVKGRFPISRDNAKNTVYLQMNSLKPEDTAVYYCAARYSYYVTGGISKYDYWGQGTQVTVSS”, the “polyreactivity (PSR sort gate)” value is given as “low polyreactivity”. With “QVQLVESGGGLVQAGGSLRLSCAASRRIYYWYVMGWYRQAPGKERELVASISWSGGSTYYADSVKGRFTISRDNAKNTVYLQMNSLKPEDTAVYYCNAGSVYTVSLPGHPYDYWGQGTQVTVSS”, the “polyreactivity (PSR sort gate)” value is listed as “low polyreactivity”. Consider “QVQLVESGGGLVQAGGSLRLSCAASRRTFWNYAMGWYRQAPGKESEFVAVIRFSDGSTYYADSVKGRFTISRDNAKTTVYLQMHSLKPEDTPVYYCAAKGPRRWGSGFDYWGQRTQVTVSS”, for which the “polyreactivity (PSR sort gate)” value is reported as “low polyreactivity”. Take “QVQLVESGGGLVQAGGSLRLSCAASRSIFPLYAMGWYRQAPGKERELVAAITYSGGRTYYADSVKGRFTISRDNAKNTVYLQMISLKPEDTAVYYCNTRQRVIDDYWGQGTQVTVSS”: the “polyreactivity (PSR sort gate)” value is “high polyreactivity”. Take “QVQLVESGGGLVQAGGSLRLSCAASRSIFSQYSRGCYRQAPGKERELVATITWRGGSNTNYADSVKGRFTISRDNAKNTVYLQMNSLKPEDTAVYYCNAAFPYHYRFDYWGQGTQVTVSS”: the “polyreactivity (PSR sort gate)” value was “low polyreactivity”. Regarding “QVQLVESGGGLVQAGGSLRLSCAASRSTFEIYAMGWYRPAPGKERELFAAISSGGSTNYADSVKGRFTISRDNAKNTVYLQMKSLITEDTAVYYCVYAIQFYYWGQGTQVTVSS”, the “polyreactivity (PSR sort gate)” value was “low polyreactivity”. Then “QVQLVESGGGLVQAGGSLRLSCAASRSTFVLYDMGWYRPAPGKERELVAAISRSGDSTYYADSVKGRYTISRDNAKNTVYLQMNSLKPEDTAVYYCAAKRRISTGMDYWGQGTQGTVSS”, with “high polyreactivity”. Turning to “QVQLVESGGGLVQAGGSLRLSCAASRSTIPSYAMGWSRQAPGKERELVASITYSDGTTRYADSVKGRFTISRDNAKNTVYLQMNSLKPEDTAVYYCNAVYYRDGMDYWGQGTQVTVSS”, the “polyreactivity (PSR sort gate)” value is recorded as “low polyreactivity”.
